Reference: paper doi:10.1101/2020.08.16.253419v1

Test system: Nc1nc2c(ncn2[C@@H]2O[C@H](COP(=O)(O)OP(=O)(O)OP(=O)(O)O)[C@@H](O)[C@H]2O)c(=O)[nH]1
Experiment: malachite green
Assay type: biochemical, Streptococcus thermophilus
Conditions: 20 mM Tris pH 8.0, 200 mM KCl, 5 mM MgCl2, 37 °C

Substance “StNFeoB (Streptococcus thermophilus LMG 18311; E66Q/E67Q)” has a Km of 187 ± 20 µM.
